For test [1], the target named is T1, His6-AGR2, purified recombinant, O95994.
T1 chain: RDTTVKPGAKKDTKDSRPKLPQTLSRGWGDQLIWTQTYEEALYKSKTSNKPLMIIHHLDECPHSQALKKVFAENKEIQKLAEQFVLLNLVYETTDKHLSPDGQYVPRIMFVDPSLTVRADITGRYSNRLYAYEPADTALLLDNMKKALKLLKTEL
Put plainly: non-reducing SDS-PAGE and immunoblot of disulfide-bonded complexes. Particulars: remark: other sources report otherwise.

In test [2] the target is T2, wild type AGR2, enforced expression, O95994.
T2 chain: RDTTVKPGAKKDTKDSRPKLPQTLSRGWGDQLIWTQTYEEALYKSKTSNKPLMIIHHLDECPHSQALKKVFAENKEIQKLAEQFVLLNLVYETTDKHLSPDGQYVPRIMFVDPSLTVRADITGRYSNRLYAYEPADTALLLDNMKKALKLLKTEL
Described as above. Particulars: remark: other sources report otherwise.

We go through two molecules from doi:10.1101/2021.01.13.426390.

B1: His6-AGR2, purified recombinant, O95994 21-175 (natural protein)
chain: RDTTVKPGAKKDTKDSRPKLPQTLSRGWGDQLIWTQTYEEALYKSKTSNKPLMIIHHLDECPHSQALKKVFAENKEIQKLAEQFVLLNLVYETTDKHLSPDGQYVPRIMFVDPSLTVRADITGRYSNRLYAYEPADTALLLDNMKKALKLLKTEL
As for B1, in test [1], the stoichiometry N was 2.

B2: wild type AGR2, enforced expression, O95994 21-175 (natural protein)
chain: RDTTVKPGAKKDTKDSRPKLPQTLSRGWGDQLIWTQTYEEALYKSKTSNKPLMIIHHLDECPHSQALKKVFAENKEIQKLAEQFVLLNLVYETTDKHLSPDGQYVPRIMFVDPSLTVRADITGRYSNRLYAYEPADTALLLDNMKKALKLLKTEL
In test [2], B2 showed a stoichiometry N of 2.
